The values that follow come from paper PMC10830420, “Structures, functions and adaptations of the human LINE-1 ORF2 protein” (Nature, 2023).

Broadly, the Km is the concentration of substrate that gives half-maximal velocity.

The data set deals with Nc1ncnc2c1ncn2[C@H]1C[C@H](O)[C@@H](COP(=O)(O)OP(=O)(O)OP(=O)(O)O)O1. The data set can be described thus: Single nucleotide (dATP) incorporation kinetics, HERV-K RT. The conditions noted are these: 20-nt DNA primer, HERV-K RT 12 nM. Type of data set: biochemical, human. On the procedure: Extended Data Fig. 5 Comparative enzymology of ORF2p RT with HIV-1 and HERV-K. a, Single nucleotide incorporation kinetic curves and parameters of dATP with 36-nt RNA or DNA template and 20-nt DNA primer with ORF2p core (33 nM), HIV-1 RT (4 nM) and HERV-K RT (12 nM). For each enzyme, Michaelis-Menten parameter kcat/KM is nearly identical on both templates (n = 3 (DNA template) and n = 4 (RNA template) independent samples over 2 independent experiments; data represented as mean ± SD). b, Comparison of HIV-1 RT and ORF2p in extension of very short (5–10 nt) primers, pre-annealed to DNA and RNA templates. ORF2p extends all DNA and RNA primer lengths, with somewhat reduced efficiency at 5 nt and, to a lesser extent, 6 nt. […] ORF2p also makes NTA (+) and template jumping/switching (##) larger products; more visible on longer exposure. […] When all products are quantified, HIV-1 extends 21–37% of primers, and this is roughly halved by the heparin trap; ORF2p extends ~10–18% of primers and is unaffected by the trap. […] Asterisk (*) Cy5-5’-label on primer. n = 1 quantified samples shown representative of two independent experiments. […]

On to HERV-K RT (Homo sapiens), for which the Km (other: DNA template 36-nt) turned out to be 4.3 ± 0.1 nM and the Km (other: RNA template 36-nt) came out at 9.5 ± 0.1 nM.
